Target: Cu, Zn-superoxide dismutase-1 (SOD1), human (human) (UniProt P00441)
Sequence (P00441 whole entry): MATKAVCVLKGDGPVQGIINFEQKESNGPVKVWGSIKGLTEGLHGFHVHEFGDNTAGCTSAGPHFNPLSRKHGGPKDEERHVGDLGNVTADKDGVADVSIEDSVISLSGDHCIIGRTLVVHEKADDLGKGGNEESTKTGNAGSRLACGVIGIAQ

proteolysis of purified human SOD1 by purified rat PSA/NPEPPS: loss of full-length SOD1 by Western blot after 6 h at 37°C, 50 mM Bicine pH 7.0, 0.2 mM DTT, molar ratio 1:6 (PSA:SOD1): 80%
B1: Puromycin-sensitive aminopeptidase (PSA/NPEPPS), rat (enzyme)
chain: MWLAAAVPSLARRLLLLGSPPPPLLLLLSRSSSRRRRLHSLGLAAMPEKRPFERLPTEVSPINYSLCLKPDLLDFTFEGKLEAAAQVRQATNQIVMNCADIDIITASYAPEGDEEIHATGFNYQNEDEKVTLSFPSTLQTGTGTLKIDFVGELNDKMKGFYRSRYTTPAGEVRYAAVTQFEATDARRAFPCWDEPAIKATFDISLVVPKDRVALSNMNVIDRKPYPDDENLVEVKFARTPVMSTYLVAFVVGEYDFVETRSKDGVCVRVYTPVGKAEQGKFALEVAAKTLPFYKDYFNVPYPLPKIDLIAIADFAAGAMENWGLVTYRETALLIDPKNSCSSSRQWVALVVGHELAHQWFGNLVTMEWWTHLWLNEGFASWIEYLCVDHCFPEYDIWTQFVSADYTRAQELDALDNSHPIEVSVGHPSEVDEIFDAISYSKGASVIRMLHDYIGDKDFKKGMNMYLTKFQQKNAATEDLWESLESASGKPIAAVMNTWTKQMGFPLIYVEAEQVEDDRVLKLSQKKFCASGPYVGEDCPQWMVPITISTSEDPNQAKLKILMDKPEMSVVLKNVKPDQWVKLNLGTVGFYRTQYSSAMLESLLPGIRDLSLPPVDRLGLQNDLFSLARAGIISTVEVLKVMEAFVNEPNYTVWSDLSCNLGILSTLLSHTDFYEEIQEFVKDVFSPIGERLGWDPKPGEGHLDALLRGLVLGKLGKAGHKATLEEARRRFKEHVEGKQILSADLRSPVYLTVLKHGDGTTLDIMLKLHKQADMQEEKNRIERVLGATLSPELIQKVLTFALSEEVRPQDTVSVIGGVAGGSKHGRKAAWKFIKDNWEELYNRYQGGFLISRLIKLSVEGFAVDKMAGEVKAFFESHPAPSAERTIQQCCENILLNAAWLKRDADSIHQYLLQRKASPPSV
